This sample holds only a part of the variants without activity.
B1: TPR 5TU (parent)
chain: GGAUCUUCUCGAUCUAACAAAAAAGACAAAUCUGCCACAAAGCUUGAGAGCAUCUUCGGAUGCAGAGGCGGCAGCCUUCGGUGGCGCGAUAGCGCCAACGUUCUCAACUAUGACACGCAAAACGCGUGCUCCGUUGAAUGGAGUUUAUCAUG

Variants of: B1
Assay: polymerase ribozyme fitness, log enrichment relative to wild type (log ratio); higher = more active; in vitro selection for triplet polymerase activity
Outline: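 Fitness is a logarithmic measure of how a genotype enriched relative to the wild type, with replicate averages weighted by inverse variance. The logarithm uses base 2, and enrichment came from Illumina sequencing of input and output libraries. Those libraries were PCR-built, transcribed mutants of each subunit of a heterodimeric triplet polymerase ribozyme, passed through one triplicate in vitro selection round that included frozen incubation at −7 °C, gel excision of extended constructs and streptavidin-bead capture. Genotypes were kept only if they had ≥10 input reads and ≥1 read per output.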

**Q.** For GGAUCUUCUCGAUCUAACAAAAAAGACAAAUCUGCCACAAAGCUUGAGAGCAUCUUCGGAUGCAGAGACGGCAGCCUUCGGUGGCGCGAUAGCGCUAACGUUCUCAACUAUGACACGCAAAACGCGUGCUCCGUUGAAUGGAGUUUAUCAUG [G68A C96U], which “polymerase ribozyme fitness (log ratio)” value is on record?
**A.** -3.68

**Q.** For GGAUCUUCUCGAUCUAACAAAAAAGACAAAUCUGCCACAAAGCUUGAGAGCAUCUUCGGAUGCAGAGACGCCAGCCUUCGGUGGCGCGAUAGCGACAACGUUCUCAACUAUGACAUGCAAAACGCGUGCUCCGUUGAAUGGAGUUUAUCAUG [G68A G71C C95A C116U], which “polymerase ribozyme fitness (log ratio)” value is on record?
**A.** ≤ -4.2

**Q.** For GGAUCUUCUCGAUCUAACAAAAAAGACAAAUCUGCCACAAAGCUUGAGAGCAUCUUCGGAUGCAGAGACGGCAGCCUUCGGUAGCGCGAUAGCGCCAACGUUCUCAACUAUGACAUGCAAAACGCGUGCUCCGUUGAAUGGAGUUUAUCAUG [G68A G83A C116U], which “polymerase ribozyme fitness (log ratio)” value is on record?
**A.** ≤ -4.2

**Q.** Which “polymerase ribozyme fitness (log ratio)” value does the source give for GGAUCUUCUCGAUCUAACAAAAAAGACAAAUCUGCCACAAAGCUUGAGAGCAUCUUCGGAUGCAGAUGCGGCAGCCUUCGAUGGCGCGAUAGGGCCAACGUUCUUAACUAUGACACGCAAAACGCGUGCUCCGUUGAAUGGAGUUUAUCAUG [G67U G81A C93G C105U] here?
**A.** ≤ -4.2

**Q.** Which “polymerase ribozyme fitness (log ratio)” value does the source give for GGAUCUUCUCGAUCUAACAAAAAAGACAAAUCUGCCACAAAGCUUGAGAGCAUCUUCGGAUGCAGAGACGGCAGCCUUCGGUGGCGGGAUAGCGCCAACGUUCUCAACUAUGACACGCAAAACGCGUUCUCCGUUGAAUGGAGUUUAUCAUG [G68A C87G G128U] here?
**A.** ≤ -4.2

**Q.** Which “polymerase ribozyme fitness (log ratio)” value does the source give for GGAUCUUCUCGAUCUAACAAAAAAGACAAAUCUGCCACAAAGCUUGAGAGCAUCUUCGGAUGCAGAGACGGCAGCCUUCGGUGGCGCGAUUGCGCCAACGUUCUCACCUGUGACACGCAAAACGCGUGCUCCGUUGAAUGAAGUUUAUCAUG [G68A A91U A107C A110G G141A] here?
**A.** ≤ -4.2

**Q.** Which “polymerase ribozyme fitness (log ratio)” value does the source give for GGAUCUUCUCGAUCUAACAAAAAAGACAAAUCUGCCACAAAGCUUGAGAGCAUCUUCGGAUGCAGAGACGGCAGCCUUCGGUGGCGAGAUAGCGCCAACGUUCUCAGCUAUGACACUCAAAACGCGUGCUCGGUUGAAUGGAGUUUAUCAUG [G68A C87A A107G G117U C132G] here?
**A.** ≤ -4.2

**Q.** With GGAUCUUCUCGAUCUAACAAAAAAGACAAAUCUGCCACAAAGCUUGAGAGCAUCUUCGGAUGCAGAGACGGCAGCCUUCGGUUGCGCGAUAGCGCCAACGUUCUCAACUAUGACACGGAAAACGCGUGCUCCGUUUAAUGGAGUUUAUCAUG [G68A G83U C118G G136U] as the variant, how does the “polymerase ribozyme fitness (log ratio)” value read?
**A.** ≤ -4.2

**Q.** Which “polymerase ribozyme fitness (log ratio)” value does the source give for GGAUCUUCUCGAUCUAACAAAAAAGACAAAUCUGCCACAAAGCUUGAGAGCAUCUUCGGAUGCAGAUGCGGCAGCCUUCGGUGGCGCGAUAGCGCCAACGUUCUCAACUAUGACACACAAAACGCGUGCUCCGUUGAAUGGAGUUUAUCAAG [G67U G117A U151A] here?
**A.** ≤ -4.2

**Q.** For GGAUCUUCUCGAUCUAACAAAAAAGACAAAUCUGCCACAAAGCUUGAGAGCAUCUUCGGAUGCAGAGACGGCAGCCUUCGAUGGCGCGAUAGCGACAACGUUCUCAACUAUGACACGCAAAACGCGUGCUCCGUUGAAUGGAGUUUAUCCUA [G68A G81A C95A A150C G152A], which “polymerase ribozyme fitness (log ratio)” value is on record?
**A.** ≤ -4.2

**Q.** Which “polymerase ribozyme fitness (log ratio)” value does the source give for GGAUCUUCUCGAUCUAACAAAAAAGACAAAUCUGCCACAAAGCUUGAGAGCAUCUUCGGAUGCAGAGACGGCAGCCUUCGGUGGCGCGAUAGCGCCAACGUUCUCCACUAUGACACGCAAAACGCGUGCUCCGUUGAAUGGAGUUUAUCAUG [G68A A106C] here?
**A.** -4.13

**Q.** With GGAUCUUCUCGAUCUAACAAAAAAGACAAAUCUGCCACAAAGCUUGAGAGCAUCUUCGGAUGCAGAUGCGGCAGCCUUCGGUGGCGCGAUAGCGCCAACGUUCUCAACUAUGACACGUAAAACGCGUGCUCCGUUGAAUGGAGUUUAUCAUG [G67U C118U] as the variant, how does the “polymerase ribozyme fitness (log ratio)” value read?
**A.** -2.87

**Q.** With GGAUCUUCUCGAUCUAACAAAAAAGACAAAUCUGCCACAAAGCUUGAGAGCAUCUUCGGAUGCAGAGACGGCAGCCUUCGGUGGCGGGAUAGCGCCAACGUUCGCAACUAUGACACGCAAAACGCGUGCUCCGUUGAAUGGAGUUUAUCAUG [G68A C87G U104G] as the variant, how does the “polymerase ribozyme fitness (log ratio)” value read?
**A.** ≤ -4.2

**Q.** With GGAUCUUCUCGAUCUAACAAAAAAGACAAAUCUGCCACAAAGCUUGAGAGCAUCUUCGGAUGCAGAGACGGCAGCCUUCGGUGGCGCGAUAGAGCCAACGUUCUCAAAUAUGACACGCAAAACGCGUGCUCCGUUGAAUGGAUUUUAUCAUG [G68A C93A C108A G143U] as the variant, how does the “polymerase ribozyme fitness (log ratio)” value read?
**A.** ≤ -4.2

**Q.** For GGAUCUUCUCGAUCUAACAAAAAAGACAAAUCUGCCACAAAGCUUGAGAGCAUCUUCGGAUGCAGAGACGGCAGACAUCGGUGGCGCGAUAGCGACGACGUUCUCAACUAUGACACGCAAAACGCGUGCUCCGUUGAAUGGAGUUUAUCAUG [G68A C75A U77A C95A A97G], which “polymerase ribozyme fitness (log ratio)” value is on record?
**A.** ≤ -4.2

**Q.** Which “polymerase ribozyme fitness (log ratio)” value does the source give for GGAUCUUCUCGAUCUAACAAAAAAGACAAAUCUGCCACAAAGCUUGAGAGCAUCUUCGGAUGCAGAGACGGAAGCCUUCCGUGGCGCGAUAGCACCAACGUUCUCAACUAUGACACGCAAAACGCGUGCUCCGUUGAAUGGAGUUUAUCAUG [G68A C72A G80C G94A] here?
**A.** ≤ -4.2

**Q.** Which “polymerase ribozyme fitness (log ratio)” value does the source give for GGAUCUUCUCGAUCUAACAAAAAAGACAAAUCUGCCACAAAGCUUGAGAGCAUCUUCGGAUGCAGAGACGGCAGCCUUCGGUGGCGCGAUAGCGCCAACGUUCUCAACUAUGACACGCUAAUCGCGUGCUCCGUUGAAUGGAGUUUAACAUG [G68A A119U A122U U148A] here?
**A.** ≤ -4.2

**Q.** For GGAUCUUCUCGAUCUAACAAAAAAGACAAAUCUGCCACAAAGCUUGAGAGCAUCUUCGGAUGCAGAGACGGCAGACUUCGGUGGCGCGAUAGCGCCAACGUUCUCAACUAUGACACGCAAAACGCGUACUCCGUUGAAUGGAGUUUAUCCUG [G68A C75A G128A A150C], which “polymerase ribozyme fitness (log ratio)” value is on record?
**A.** ≤ -4.2

**Q.** Which “polymerase ribozyme fitness (log ratio)” value does the source give for GGAUCUUCUCGAUCUAACAAAAAAGACAAAUCUGCCACAAAGCUUGAGAGCAUCUUCGGAUGCAGAUGCCGCAGCCUUCGGUGGCACGAUAGCGCCAACGUUCUCAACUAUGACACGCAAAACGCGUGCUCGGUUGAAUGGAGUUUAUCAUG [G67U G70C G86A C132G] here?
**A.** ≤ -4.2

From the RNAGym collection of RNA variant scans (doi:10.1073/pnas.2313332121)
